For test [1], the target named is T1, recombinant human FGFR3 IIIb Fc fusion protein (human, UniProt P22607-2 23-377, limits assumed).
T1 construct: Bought reagent; the IIIb splice isoform is meant; also called rhFGFR3 IIIb Fc; hFGFR3 IIIb; not shown: Fc fragment (removable by Factor Xa, detected with anti-human IgG)
T1 sequence (looked up): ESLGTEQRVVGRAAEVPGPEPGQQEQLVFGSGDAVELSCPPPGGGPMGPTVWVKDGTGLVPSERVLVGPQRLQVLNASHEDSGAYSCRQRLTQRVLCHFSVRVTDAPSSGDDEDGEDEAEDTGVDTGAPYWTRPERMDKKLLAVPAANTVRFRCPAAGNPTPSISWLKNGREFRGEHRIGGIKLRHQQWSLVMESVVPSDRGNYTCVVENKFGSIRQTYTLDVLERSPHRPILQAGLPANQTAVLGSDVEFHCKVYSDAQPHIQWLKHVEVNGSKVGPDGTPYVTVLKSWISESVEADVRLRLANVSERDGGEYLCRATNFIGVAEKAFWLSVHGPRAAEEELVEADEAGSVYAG
Put plainly: SPR (Biacore T100), antibody captured on anti-mouse Ig, rhFGFR3 IIIb Fc as analyte, 25 C. The procedure: (§1) The binding affinities and kinetics of interaction of the monoclonal antibodies (15D8, 27H2, 2G4, and 4E7(7D12)) produced in Example 1 against recombinant human FGFR3 (IIIb and IIIc isoforms) Fc fusion protein (rhFGFR3 IIIb Fc or rhFGFR3 IIIc Fc) were measured by surface plasmon resonance using a Biacore™ T100 (Biacore) instrument.
(§2) Rabbit anti-mouse immunoglobulins (Biacore, Catalog No. BR-1005-14) were immobilized on carboxymethylated dextran CM4 sensor chips (Biacore, Catalog No. BR-1005-34) by amine coupling (Biacore, Catalog No. BR-1000-50) using a standard coupling protocol according to manufacturer's instructions.
(§3) The antibodies were captured in an individual flow cell at a flow rate of 10 μl/min. Injection time was varied for each antibody to yield approximately 40-50 RU of antibody captured for each cycle. Buffer or rhFGFR3 IIIb Fc (R&D Systems, Catalog No. 1264-FR-050) or rhFGFR3 IIIc Fc (R&D Systems, Catalog No. 766-FR-050) diluted in running buffer was injected sequentially over a reference surface (no antibody captured) and the active surface (antibody to be tested) for 300 sec at 60 μl/min. The dissociation phase was monitored for 30 minutes. The surface was then regenerated with two 60-seconds injection of 10 mM Glycine-HCl, pH 1.7 (made from Glycine pH 1.5 (Biacore, Catalog No. BR-1003-54) and pH 2.0 (Biacore, Catalog No. BR-1003-55)) at a flow rate of 60 μl/min. rhFGFR3 Fc concentrations tested were 0.62 nM to 40 nM.

For test [2], the target named is T1, recombinant human FGFR3 IIIb Fc fusion …. Put plainly: ECL competition assay: inhibition of rhFGFR3 IIIb Fc binding to coated FGF1 (competitor FGF1); 15D8 IgG1, not Fab; average of n = 3. The procedure: (§4) The antibodies were tested by ECL (Electrochemiluminescence) assay for inhibition of hFGFR3 IIIB binding to FGF-1. […] The plates then were washed 3 times with PBS and blocked with 200 μl of PBS containing 5% BSA (Sera Care Life Sciences, Catalog No. AP-4510-80) and 5 μg/mL heparin (Sigma, Catalog No. H4784) for 1 hour at room temperature. The antibodies (concentration range: 0.029-30 μg/mL) were incubated for 1 hour at room temperature with 1.7 μg/mL rhFGFR3 IIIb Fc (R&D Systems, Catalog No. 1264-FR-050) and 5 μg/mL heparin. After washing the plates 3 times with PBS, 25 μl of the antibody-receptor mixture was added to the plates for another hour at room temperature with agitation. The plates were washed three times with PBS and incubated with 25 μl of 1 μg/mL ST-anti-human IgG antibody (Meso Scale Discovery, Catalog No. R32AJ-1) for 1 hour at room temperature with agitation. The plates then were washed 3 times with PBS, and 150 μl of 1× read buffer (Meso Scale Discovery, Catalog No. R92TC-1) was added to each well before the plates were analyzed on a Sector Imager 2400 (Meso Scale Discovery) instrument.

Test [3] has the same target. Briefly: ECL competition assay: inhibition of rhFGFR3 IIIb Fc binding to coated FGF1 (competitor FGF1). The procedure:
as §4

Test [4] has as its target T2, recombinant human FGFR3 IIIc Fc fusion protein (human, UniProt P22607 23-375).
T2 construct: Bought reagent; also called rhFGFR3 IIIc Fc; not shown: Fc fragment (removable by Factor Xa)
T2 sequence (looked up): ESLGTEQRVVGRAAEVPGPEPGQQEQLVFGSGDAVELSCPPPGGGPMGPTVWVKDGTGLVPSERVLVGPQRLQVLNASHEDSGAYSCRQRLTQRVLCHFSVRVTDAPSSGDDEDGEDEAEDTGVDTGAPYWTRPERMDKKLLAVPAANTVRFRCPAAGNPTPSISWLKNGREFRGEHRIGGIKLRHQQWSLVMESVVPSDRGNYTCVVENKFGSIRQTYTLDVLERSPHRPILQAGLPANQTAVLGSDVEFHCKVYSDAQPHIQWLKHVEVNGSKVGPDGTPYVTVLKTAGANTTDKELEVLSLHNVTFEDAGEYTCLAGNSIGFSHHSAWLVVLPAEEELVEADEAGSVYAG
Briefly: SPR (Biacore T100), antibody captured on anti-mouse Ig, rhFGFR3 IIIc Fc as analyte, 37 C. The procedure:
as §1, §2, §3

B1: anti-FGFR3 monoclonal antibody 15D8 (antibody, mouse IgG1, kappa)
heavy: EIQLQQSGPELVKPGASVKVSCKASGYAFTSYNMYWVKQSHGKSLEWIGYIDPYNGGTSYNQKFKGKATLTVDKSSSTAYMHLNSLTSEDSAVYYCAREGGNYEAWFAYWGQGTLVTVSAAKTTPPSVYPLAPGSAAQTNSMVTLGCLVKGYFPEPVTVTWNSGSLSSGVHTFPAVLQSDLYTLSSSVTVPSSTWPSETVTCNVAHPASSTKVDKKIVPRDCGCKPCICTVPEVSSVFIFPPKPKDVLTITLTPKVTCVVVDISKDDPEVQFSWFVDDVEVHTAQTQPREEQFNSTFRSVSELPIMHQDWLNGKEFKCRVNSAAFPAPIEKTISKTKGRPKAPQVYTIPPPKEQMAKDKVSLTCMITDFFPEDITVEWQWNGQPAENYKNTQPIMDTDGSYFVYSKLNVQKSNWEAGNTFTCSVLHEGLHNHHTEKSLSHSPGK
light: QIVLTQSPALMSASPGEKVTMTCSASSSVSYMYWYQQKPRSSPKPWIYLTSYLASGVPARFSGSGSGTSYSLTISSMEAEDAATYYCQQWSSYPLTFGAGTKLELKRADAAPTVSIFPPSSEQLTSGGASVVCFLNNFYPKDINVKWKIDGSERQNGVLNSWTDQDSKDSTYSMSSTLTLTKDEYERHNSYTCEATHKTSTSPIVKSFNRNEC
notes: also called 15D8 IgG1; murine antibody 15D8
The term Kd denotes the constant that tells how readily two partners part at equilibrium. A word on the koff: it is the first-order rate constant of dissociation. By kon is commonly meant a measure of how fast the partners come together. One may read the IC50 as the point on the concentration scale where inhibition reaches its midpoint. As for B1, in test [1], the Kd is 2.6 nM, the koff was 0.00033 s⁻¹ and the kon worked out at 200000 M⁻¹ s⁻¹. Besides, the IC50 in test [2] amounted to 15.4 nM. Moreover, in test [3], the “Maximum Neutralization (%)” value amounted to 80.5%. Further, in test [4], the dissociation constant Kd was 1.8 nM, the koff worked out at 0.00018 s⁻¹ and the kon is 120000 M⁻¹ s⁻¹.
